Reference: publication PMC11162469, “Discovery of RXFP2 genetic association in resistant hypertensive men and RXFP2 antagonists for the treatment of resistant hypertension” (Scientific Reports, 2024)
Positions count from the first letter of the chain named. One block for each binder: values may come before it. Bridge positions count the residues as written; N and C are the ends. Ends that are not written are not given here. I, II: the chains in the order shown.

Legend:
[1] = target: rat relaxin family peptide receptor 2 (RXFP2) (rat) (UniProt Q5ECL0)
[2] = target: rat relaxin family peptide receptor 2 (RXFP2) (rat) (UniProt Q5ECL0); remark: listed apart in the source
[3] = target: human relaxin family peptide receptor 2 (RXFP2) (human) (UniProt Q8WXD0)
[4] = target: rat relaxin family peptide receptor 2 (RXFP2) (rat) (UniProt Q5ECL0); remark: listed apart in the source
[5] = target: rat relaxin family peptide receptor 2 (RXFP2) (rat) (UniProt Q5ECL0); remark: listed apart in the source
RXFP2 mAb 2H3 (rat) = assay: SPR; Biacore S200; goat anti-rat Fc gamma immobilised on a Series S CM5 chip, purified recombinant rat anti-RXFP2 antibodies captured at 5 µg/mL; rat or human LDLa-linker protein flowed as analyte at 20, 10, 5, 2.5, 1.75 and 0 nM; 1:1 fit model

human relaxin family peptide receptor 2 (RXFP2) (human), sequence (Q8WXD0 whole entry): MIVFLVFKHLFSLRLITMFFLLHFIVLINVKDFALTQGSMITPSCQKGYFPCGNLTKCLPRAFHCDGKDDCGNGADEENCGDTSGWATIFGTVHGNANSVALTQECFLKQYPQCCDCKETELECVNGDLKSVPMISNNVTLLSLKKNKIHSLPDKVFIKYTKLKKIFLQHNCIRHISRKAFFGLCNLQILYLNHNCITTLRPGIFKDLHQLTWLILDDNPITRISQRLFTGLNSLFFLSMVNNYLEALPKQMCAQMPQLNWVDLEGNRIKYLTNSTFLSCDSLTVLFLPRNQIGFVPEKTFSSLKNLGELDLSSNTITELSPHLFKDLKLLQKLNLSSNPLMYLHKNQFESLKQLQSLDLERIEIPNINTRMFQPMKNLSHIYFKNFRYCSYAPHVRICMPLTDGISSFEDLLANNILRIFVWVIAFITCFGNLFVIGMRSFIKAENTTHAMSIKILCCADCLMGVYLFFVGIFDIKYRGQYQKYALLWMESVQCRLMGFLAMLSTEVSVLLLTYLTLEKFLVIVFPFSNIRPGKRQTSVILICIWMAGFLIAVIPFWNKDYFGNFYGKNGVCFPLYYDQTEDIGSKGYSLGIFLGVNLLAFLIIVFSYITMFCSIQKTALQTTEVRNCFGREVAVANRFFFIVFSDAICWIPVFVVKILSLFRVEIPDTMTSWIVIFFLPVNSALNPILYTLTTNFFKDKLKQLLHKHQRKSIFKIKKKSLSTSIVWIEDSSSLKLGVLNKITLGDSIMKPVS
rat relaxin family peptide receptor 2 (RXFP2) (rat), sequence (Q5ECL0 entry or part of it): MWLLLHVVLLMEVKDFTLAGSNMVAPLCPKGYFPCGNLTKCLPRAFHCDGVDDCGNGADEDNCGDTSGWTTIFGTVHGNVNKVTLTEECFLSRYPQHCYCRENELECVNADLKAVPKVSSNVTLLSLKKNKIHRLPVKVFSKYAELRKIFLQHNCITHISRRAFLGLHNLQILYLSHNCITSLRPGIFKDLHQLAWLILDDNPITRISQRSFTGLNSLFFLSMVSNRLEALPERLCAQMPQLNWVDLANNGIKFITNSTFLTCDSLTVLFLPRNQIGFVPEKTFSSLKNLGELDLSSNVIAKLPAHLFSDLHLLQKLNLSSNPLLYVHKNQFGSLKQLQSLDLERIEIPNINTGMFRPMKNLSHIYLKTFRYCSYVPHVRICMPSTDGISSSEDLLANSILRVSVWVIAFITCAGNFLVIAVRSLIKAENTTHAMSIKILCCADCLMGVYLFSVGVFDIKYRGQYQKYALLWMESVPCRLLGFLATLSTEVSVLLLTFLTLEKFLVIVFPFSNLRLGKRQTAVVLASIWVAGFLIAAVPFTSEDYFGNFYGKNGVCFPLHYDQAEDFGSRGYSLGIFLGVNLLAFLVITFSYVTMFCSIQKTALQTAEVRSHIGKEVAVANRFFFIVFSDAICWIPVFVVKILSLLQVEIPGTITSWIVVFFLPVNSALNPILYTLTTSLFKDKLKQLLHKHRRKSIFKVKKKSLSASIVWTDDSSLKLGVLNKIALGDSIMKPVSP

% Max Response, INSL3 (EC80)-stimulated cAMP in HEK293 stably expressing rat RXFP2 [1]: 87.2%
IC50, INSL3 (EC80)-stimulated cAMP in HEK293 stably expressing rat RXFP2 [1]: 28 nM
IC50, INSL3-stimulated CYP11B1 mRNA in H295R stably expressing rat RXFP2 [1]: 0.27 nM
IC50, INSL3-stimulated CYP11B2 mRNA in H295R stably expressing rat RXFP2 [1]: 0.17 nM
B3: RXFP2 mAb 1G1 (antibody, V domains shown)
VH: EVQLQQSGPELVKPGASVKMSCKASGYTFTDYNMHWVKQKPGQGLEWIGYINPYNDGTEYNEKFKGKATLTSDKSSSTAYMDLSSLTSEDSAVYYCARGLWFAMNYWGQGTSVTVSS
VL: DIQMTQSSSSFSVSLGDRVTITCKASEDIYNRLAWYQQKPGNTPRLLISGATILETGVPSRFSGSGSGKDYTLSIISLQTEDVATYYCQQYWIIPPTFGGGTKLEIK

IC50, INSL3-induced cortisol release (ELISA) from H295R stably expressing rat RXFP2 [2]: 0.26 nM
% Max Response, INSL3 (EC80)-stimulated cAMP in HEK293 stably expressing rat RXFP2 [1]: 82.5%
IC50, INSL3 (EC80)-stimulated cAMP in HEK293 stably expressing rat RXFP2 [1]: 14.1 nM
IC50, INSL3-stimulated CYP11B1 mRNA in H295R stably expressing rat RXFP2 [1]: 0.33 nM
IC50, INSL3-stimulated CYP11B2 mRNA in H295R stably expressing rat RXFP2 [1]: 0.1 nM
% Max Response, INSL3 (EC80)-stimulated cAMP in HEK293 stably expressing human RXFP2 [3]: 84.5%
IC50, INSL3 (EC80)-stimulated cAMP in HEK293 stably expressing human RXFP2 [3]: 15.6 nM
B4: RXFP2 mAb 4G6 (antibody, V domains shown)
VH: EVQLQQSGPELVKPGASVKLSCKASGYTFTSYVMHWVKQKPEQGLEWIGYKNPSNDGIKYNEKFKGKATLTSDKSSNIAYMELFSLTSEDSAVYYCARSDFGSVWAMDYWGQGTSVTVSS
VL: SIVMTQTPKFLLVSAGDRVTITCKASQSVNDDIVWYQQKPGQSPKLLIYYASNRYTGVPDRFTGSGYGTDFTFTISTVQAGDLAVYFCQQDYSSPFTFGSGTKLEIK

EC50, cortisol secretion (ELISA) from H295R cells stably expressing rat RXFP2 [4]: 0.16 nM
EC50, aldosterone secretion (ELISA) from H295R cells stably expressing rat RXFP2 [5]: 2.2 nM
B5: Rat INSL3 (ligand)
chain 1: SVATNAVHRCCLTGCTQQDLLGLCPH
chain 2: LRSPQPPEARAKLCGHHLVRALVRVCGGPRWSPEA
modifications: disulfide I:10-I:15, I:11-II:14, I:24-II:26

Kd (RXFP2 mAb 2H3 (rat)): 582 nM
B7: rat LDLa-linker protein (ratRXFP2-LDLa-linker(20-88)) (domain or fragment)
chain: GSNMVAPLCPKGYFPCGNLTKCLPRAFHCDGVDDCGNGADEDNCGDTSGWTTIFGTVHGNVNKVTLTEE

% Max Response, INSL3 (EC80)-stimulated cAMP in HEK293 stably expressing rat RXFP2 [1]: 80.4%
IC50, INSL3 (EC80)-stimulated cAMP in HEK293 stably expressing rat RXFP2 [1]: 48.5 nM
% Max Response, INSL3 (EC80)-stimulated cAMP in HEK293 stably expressing human RXFP2 [3]: 82.7%
IC50, INSL3 (EC80)-stimulated cAMP in HEK293 stably expressing human RXFP2 [3]: 354 nM
B8: RXFP2 mAb 4F6 (antibody, V domains shown)
VH: EVQLQQSGPELVKPGASVKMSCKASGYTFTNYVLHWVKQKPGQGLEWIGYINPYNDGSKYNEKFKGRATLTSDKSSSTAYMELSSLTSEDSAVYYCARGGWLLDYFDYWGQGTTLTVSS
VL: DVLMTQSPLSLPVSLGEQASISCRSSQSIVHSDGDTYLEWYLQKPGQSPNLLIYKVSNRFSGVPDRFSGSGSGTDFTLKISRVEAEDLGVYYCFQGSHVPPTFGGGTKLEIK

The next lines start with the binder.

B1: RXFP2 mAb 3H1 (antibody, V domains shown)
VH: QVQLKETGPGLVAPSQSLSITCTVSGFSLTNYGVNWVRQPPGKGLEWLVVIWSDGSTNYNSALKSRLSISKDNSKSQVFLKMNSLQTDDTAMYYCARQQGYYAMDYWGQGTSVIVSS
VL: DIQMTQSPASLSVSVGETVTITCRASENIYSNLAWYQQKQGKSPQLLVYAVTNLADGVPSRFSGSGSGTQYSLKINSLQSEDFGSYYCQHFWGPPYTFGGGTKLEIK
% Max Response, INSL3 (EC80)-stimulated cAMP in HEK293 stably expressing rat RXFP2 [1]: 71.6%
IC50, INSL3 (EC80)-stimulated cAMP in HEK293 stably expressing rat RXFP2 [1]: 15.8 nM
IC50, INSL3-stimulated CYP11B1 mRNA in H295R stably expressing rat RXFP2 [1]: 0.33 nM
IC50, INSL3-stimulated CYP11B2 mRNA in H295R stably expressing rat RXFP2 [1]: 0.16 nM

B2: RXFP2 mAb 3F3 (antibody, V domains shown)
VH: QVQLQQPGSVLVRPGASVKLSCKASGYIFTSYWMHWVKQRPGQGLEWIGEIYPNSGRTSYNEKFKGKATVTVDTSSSTAYVDLSSLTSEDSAVYYCASGGHWFAYWGQGTLVTVSA
VL: B3 VL with T43A, I53S, T56A, I76T, A84S, I94T, P96Y
% Max Response, INSL3 (EC80)-stimulated cAMP in HEK293 stably expressing rat RXFP2 [1]: 78.5%
IC50, INSL3 (EC80)-stimulated cAMP in HEK293 stably expressing rat RXFP2 [1]: 37 nM
IC50, INSL3-stimulated CYP11B1 mRNA in H295R stably expressing rat RXFP2 [1]: 3.85 nM
IC50, INSL3-stimulated CYP11B2 mRNA in H295R stably expressing rat RXFP2 [1]: 0.51 nM

B6: RXFP2 mAb 4A5 (antibody, V domains shown)
VH: DVQLVESGGGLVQPGGSRKLSCAASGFTFSTFGMHWVRQAPEKGLEWVAYISSGSSTIYYADTVKGRFTISRDNPKNTLFLQMTSLRSDDTAMYYCSRSYYGSAHYFDYWGQGTTLTVSS
VL: B1 VL with A50V, V51A, K74R, S77N, S85N, P94T, Y96P
% Max Response, INSL3 (EC80)-stimulated cAMP in HEK293 stably expressing rat RXFP2 [1]: 91%
IC50, INSL3 (EC80)-stimulated cAMP in HEK293 stably expressing rat RXFP2 [1]: 23.2 nM
IC50, INSL3-stimulated CYP11B1 mRNA in H295R stably expressing rat RXFP2 [1]: 2.85 nM
IC50, INSL3-stimulated CYP11B2 mRNA in H295R stably expressing rat RXFP2 [1]: 0.31 nM
